According to publication PMC5993284, “Peptide inhibitors of the anaphase promoting-complex that cause sensitivity to microtubule poison” (PLoS ONE, 2018):
Ends that are not written are not given here. * marks the point of attachment. Biotin = O=C1N[C@H]2[C@H](CS[C@H]2CCCCC(=O)*)N1

Columns and labels:
[1] = biological target: Anaphase Promoting-Complex/Cyclosome (APC/C) isolated through Cdc16-TAP and kept on IgG beads (S. cerevisiae | S. cerevisiae (endogenous in yeast)) (UniProt P09798)
Cdc20 = test: Avidin-bead pull-down of full-length Cdc20 made by IVT/T; type: binding, Saccharomyces cerevisiae; conditions: biotinylated form; Avidin beads; rabbit reticulocyte lysate; Western blot; n = 3
Description: To determine if Tyc1 could interact directly with the APC/C a pure N-terminal biotinylated form of Tyc1 was incubated with purified APC/C. […] Thus, like Mad2-binding motif peptides, unexpectedly Tyc1 protein binds to and inhibits APC/C when present in excess leading to a microtubule poison sensitivity phenotype in vivo.
Supplementary file pone.0198930.s008.tif: S8 Fig Tyc1 can pull-down recombinant Cdc20 synthesized by IVT/T. A) A Western blot displaying the detection of Cdc20 protein made by IVT/T (left), where the epitope tag is at the N-terminus of the ORF. The IVT/T reaction yields a series of protein products that display full-length and lower molecular weights, potentially the result of pre-mature translation termination. An Avidin-bead pull-down using a biotinylated-Tyc1 (Bio-Tyc1) is shown (right). […] B) An Avidin-bead pull-down using a biotinylated-Tyc1-mut1 (Bio-Tyc1-mut1) (middle) and biotinylated-Tyc1-mut2 (Bio-Tyc1-mut2) are shown (right). […] (TIF) Click here for additional data file.

[2] = biological target: Anaphase Promoting-Complex/Cyclosome (APC/C) isolated through Cdc16-TAP and kept on IgG beads (S. cerevisiae | S. cerevisiae (endogenous in yeast)) (UniProt P09798); remark: listed apart in the source
[3] = biological target: Anaphase Promoting-Complex/Cyclosome (APC/C) isolated through Cdc16-TAP and kept on IgG beads (S. cerevisiae | S. cerevisiae (endogenous in yeast)) (UniProt P09798); remark: listed apart in the source
APC/C [4] = test: APC/C activity promoted by mutant Cdc20 alleles in the presence of Mad2 (Pds1 remaining); type: biochemical, Saccharomyces cerevisiae; conditions: 5.0 μM Mad2, n = 3
Description: (§1) The production of Cdc20 or Cdh1 was prepared by IVT/T reactions, where 16 μL of rabbit reticulocyte lysate, 20 μM L-methionine, 0.4 μg of plasmid DNA, and a volume of nuclease-free ddH2O for a total volume of 20 μL. This freshly synthesized Cdc20 or Cdh1 protein was used directly in all APC/C assays after a 1-hour synthesis reaction at room temperature. The APC/C was purified for enzyme assays from 1 mL of TAP-tagged Cdc16 yeast extract (SCSY51) where extract was mixed with 50 μL 50:50 slurry magnetic beads (Invitrogen, Norway) for 2 hours at 4 °C. After incubation, the beads were washed with 3 mL APC/C wash buffer (200 mM of HEPES, 150 mM of NaCl and 10% (v/v) of glycerol). APC/C bound to IgG magnetic beads was used directly in the enzyme assays.
(§2) APC/C assays were performed by adding the reaction contents in following order: 4.3 μL of QAH buffer, 20 μL of rabbit reticulocyte lysate containing Cdc20 or Cdh1 with or without an additional volume of recombinant checkpoint protein(s) or inhibitor peptides, 2.4 μL ubiquitin aldehyde (Boston Biochem, USA), APC/C, 16 μL pre-charged E1/E2/ATP/ubiquitin mix, and 13.3 μL of ^35S-Pds1 with QAH buffer (20 mM HEPES at pH 8.0, 100 mM NaCl, and 1 mM MgCl2). The E1/E2/ATP/ubiquitin mix were pre-charged by mixing 1 μL of E1 (Boston Biochem, USA), 1 μL of E2 (Boston Biochem, USA), 14.4 μL of ATP, 14.4 μL of […] (Boston Biochem, USA), and 17.2 μL of QAH buffer and incubated for 15 minutes at room temperature. Approximately 15 μL of samples were taken out at each time point, and the reaction was stopped by the addition of 2x protein sample buffer (125 mM Tris-HCl pH 6.8, 4% SDS, 20% glycerol, and 0.002% bromophenol blue, with 10% (final v/v) 2-mercaptoethanol added in fresh directly before use).
For inhibitor titration and time-course experiments, recombinant Bub3, Mad2, Mad3, and the Mad3-Bub3 complex were expressed and purified as previously described. Inhibitory peptides were synthesized by standard procedures and purified to 99% purity by HPLC (Kelowna International Scientific Inc., Taiwan). For inhibition of APC/C the co-factor Cdc20 or Cdh1 was made fresh by IVT/T, and pure recombinant checkpoint proteins or inhibitor peptides were added to the IVT/T mixture and incubated for an additional hour at room temperature. In titrations, a dilution series of the checkpoint protein(s) were made before incubation with the Cdc20 co-factor. […]
Our first goal was to measure the ability of the mutant alleles to promote APC/C activity in vitro. To ensure any observed change in APC/C activity reflected a change in function, and not a change in the amount of Cdc20 co-factor protein produced by IVT/T, the amounts of Cdc20 protein produced by IVT/T was measured, and no significant difference was observed (S4 Table). […]

APC/C [5] = test: APC/C activity promoted by mutant Cdc20 alleles (Pds1 remaining); type: biochemical, Saccharomyces cerevisiae
Description: as §1, §2
For APC/C activity assays dried-gels were exposed on a phosphor screen cassette to detect radio-labeled protein. The phosphor screen was scanned by a Typhoon phosphor-imager (GE Healthcare Bio-Sciences, USA), and radio-labeled protein bands in gels were quantified by employing the ImageQuant software (GE Healthcare Bio-Sciences, USA) according to the manufacturer’s protocols. Data were expressed as mean ± standard deviation, and was analyzed using Student’s t-test. Graphs were created using Kaliedograph 4.0 (Synergy Software, USA) and estimates of best-fit curves of a 4-parameter Hill equation were generated to obtain estimates for the median inhibitory concentrations (IC50) and Hill coefficients (Hc) using IgorPro 6.01 (Wavemetrics, USA).
By sequence alignment and amino acid homology alone, the budding yeast KILR-motif may be defined as 201-RILQ-204 (Fig 1A). However, the next residue, Tyrosine Y205 had previously been isolated in a genetic screen for spindle checkpoint by-pass alleles of Cdc20 [21], indicating this Y205 residue may be a target of the spindle checkpoint inhibition, and thus might also be a functional KILR-motif residue that contributes to APC/C activation. To clarify this possibility, we took the initial step to characterize several of the previously isolated spindle checkpoint by-pass mutant alleles of Cdc20 [21], and also Cdc20 mutants in the two highly conserved residues within the Mad2-binding motif, the aspartic acid at D197 of unknown function and the highly conserved Leucine L203 within the KILR-motif based on sequence alignment and homology. […]

Chain of Anaphase Promoting-Complex/Cyclosome (APC/C) isolated through Cdc16-TAP and kept on IgG beads (S. cerevisiae | S. cerevisiae (endogenous in yeast)) (P09798 whole entry, looked up, one chain of several): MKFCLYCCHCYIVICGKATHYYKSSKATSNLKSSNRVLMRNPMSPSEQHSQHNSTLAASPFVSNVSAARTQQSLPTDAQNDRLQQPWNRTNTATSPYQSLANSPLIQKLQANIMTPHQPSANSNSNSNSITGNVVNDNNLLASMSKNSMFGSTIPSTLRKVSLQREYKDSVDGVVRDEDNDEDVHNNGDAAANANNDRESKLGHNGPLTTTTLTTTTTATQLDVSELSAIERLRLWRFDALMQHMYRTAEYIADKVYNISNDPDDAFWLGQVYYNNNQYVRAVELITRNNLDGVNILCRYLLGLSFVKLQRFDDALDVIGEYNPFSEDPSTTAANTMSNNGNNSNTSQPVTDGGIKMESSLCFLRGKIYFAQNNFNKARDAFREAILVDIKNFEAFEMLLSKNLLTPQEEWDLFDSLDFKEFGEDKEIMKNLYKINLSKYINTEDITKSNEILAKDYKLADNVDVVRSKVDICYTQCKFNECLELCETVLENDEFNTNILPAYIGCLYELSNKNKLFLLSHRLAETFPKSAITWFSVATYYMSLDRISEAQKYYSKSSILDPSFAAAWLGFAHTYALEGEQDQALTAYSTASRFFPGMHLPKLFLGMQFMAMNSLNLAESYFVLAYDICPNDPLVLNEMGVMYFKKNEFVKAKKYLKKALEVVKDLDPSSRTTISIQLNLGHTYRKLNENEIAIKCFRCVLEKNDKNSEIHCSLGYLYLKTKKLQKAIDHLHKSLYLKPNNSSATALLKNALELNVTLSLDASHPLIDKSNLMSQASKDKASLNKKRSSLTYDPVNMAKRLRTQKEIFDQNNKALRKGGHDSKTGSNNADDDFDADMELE

non-biotinylated Tiny Yeast Comet 1 (Tyc1) (natural protein)
inhibition of APC/C^Cdc20 activity in vitro (35S-Pds1 substrate), titration of Tyc1; blocks the binding of co-factor Cdc20 to APC/C [1]: 50 µM

Bio-Tyc1: biotinylated-Tyc1 (Biotin-MKVLDDWFSRKFSKAVHGNNHGTISLSTLSYIRVHKLVK)
pull-down of full-length Cdc20 from IVT/T lysate (in words) (Cdc20): Both full-length and lower molecular weight forms of Cdc20 were observed

non-biotinylated PQ65 (Cdc20 169–232) (from UniProt P26309 169-232) (peptide)
inhibition of APC/C^Cdc20 activity in vitro (35S-Pds1 substrate), serial dilution of PQ65; blocks the binding of co-factor Cdc20 to APC/C [2]: < 50 µM

DMNKRILQYMPEPPKCSSLRQKSYIMKKRTHYSYQQ (not fully specified) [non-biotinylated DQ36 (Cdc20 197–232)]
inhibition of APC/C^Cdc20 activity in vitro (35S-Pds1 substrate), titration of DQ36; blocks the binding of co-factor Cdc20 to APC/C [3]: 150 µM

B1: Cdc20-127 (Y205N): spindle checkpoint by-pass mutant allele of Cdc20, Y205N (protein, UniProt P26309 1-610, looked up, variant Y205N)
APC/C activator protein CDC20: MPESSRDKGNAAISGNRSVLSIASPTKLNILSSDWSRNQGKVSKNSLKRSSSLNIRNSKRPSLQASANSIYSRPKITIGAPPLIRRDSSFFKDEFDAKKDKATFSAYSSRSYPTIGSESVVSQTSLSQPTTSREVDEQFTVAADRYIPILQGASQNKVDPETLHEALPPPNASPISHLRAQTKIVFKQNVAEACGLDMNKRILQNMPEPPKCSSLRQKSYIMKKRTHYSYQQEQKIPDLIKLRKINTNPERILDAPGFQDDFYLNLLSWSKKNVLAIALDTALYLWNATTGDVSLLTDFENTTICSVTWSDDDCHISIGKEDGNTEIWDVETMSLIRTMRSGLGVRIGSLSWLDTLIATGSRSGEIQINDVRIKQHIVSTWAEHTGEVCGLSYKSDGLQLASGGNDNTVMIWDTRTSLPQFSKKTHTAAVKALSWCPYSPNILASGGGQTDKHIHFWNSITGARVGSINTGSQVSSLHWGQSHTSTNGGMMNKEIVATGGNPENAISVYNYETKFKVAEVVHAHEARICCSQLSPDGTTLATVGGDENLKFYKIFDPRCTGRSREDGLMDGMLGLIGKEGCRTNDKENRSKNSSEIHTRRPSSTSQYLIR
ability of mutant Cdc20 to promote APC/C activity in the presence of Mad2 (in words) (APC/C [4]): consistently displayed APC activity in the presence of Mad2 | ability of mutant Cdc20 to promote APC/C activity in the presence of Mad2 (in words) (APC/C [4]; listed as Cdc20-127): promote APC/C activity at the same level as control reactions even in the presence of 5.0 μM Mad2 | ability of mutant Cdc20 to promote APC/C activity (in words) (APC/C [5]; vs wild type Cdc20, n = 3): consistently displayed a decrease in APC activity | ability of mutant Cdc20 to promote APC/C activity (in words) (APC/C [5]; vs wild type Cdc20, n = 3, listed as Cdc20-127): displayed decreased APC/C activity
